From publication PMC1182371

Molecular target: KLF15-ZF-GST (human) (UniProt Q9UIH9)
Experiment: DNase I footprinting
Conditions: EMSA: 4 mM HEPES, 5 mM EGTA, 100 mM KCl, 0.25 mM ZnCl2, 0.02% NP40, 0.1 M DTT, 4% glycerol, 90-120 min on ice, pH not stated, footprinting: same buffer

Sequence of KLF15-ZF-GST (human) (Q9UIH9 294-416): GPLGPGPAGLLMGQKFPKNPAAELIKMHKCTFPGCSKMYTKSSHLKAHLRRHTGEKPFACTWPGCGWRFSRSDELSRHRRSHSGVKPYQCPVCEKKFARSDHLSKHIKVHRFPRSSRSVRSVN

Sequence | binding
CGCCGGCGGCGCGAACCCGGGGATGCTTCTGAGGCCGGAGCTCAGCCACACGGGGCTCCGGCTGGACGACTCGTGGCTCCAACTCCCCCCCCAGGCCCTTATGAAGTGACCTCCCCTCCCTAAGCTCCCGGCTGAATCAGCACCTCGGAGATTGGGGGCGTTATTAATCATATTAATCCTCACTGCTGCAACGAGGGGCTTAATTGGCTTCCAGGTGGGGCCAAGGTGACTCCAGGTAGAAGGCTGTGGTCGGGGAGAAGGCGGGGCGTGCTGGGGACCCTGGGAAAGAGCAGAGGCCT (double strand) [bovine Rho -225 to +70] | binds
GAAGTGACCTCCCCTCCCTAAGCTCCCGGCTGAATCAGCACCTCGGAGATTGGGGGCGTTATTAATCATATTAATCCTCACTGCTGCAACGAGGGGCTTAATTGGCTTCCAGGTGGGGCCAAGGTGACTCCAGGTAGAAGGCTGTGGTCGGGGAGAAGGCGGGGCGTGCTGGGGACCCTGGGAAAGAGCAGAGGCCTGCCCCCAACTCCCCTGTCCCCCTCTGGCATCTCAGCTGATGGCCCTGGCCTGGCATTGGGACCCCTAGCTCTAGGCCCACTTCCCTCT (double strand) [bovine Rho -315 to -31] | binds
